B1: TRAF2: TNF receptor associated factor 2, human adaptor protein expressed from pcDNA3 (protein, UniProt Q12933 1-501, looked up)
chain: MAAASVTPPGSLELLQPGFSKTLLGTKLEAKYLCSACRNVLRRPFQAQCGHRYCSFCLASILSSGPQNCAACVHEGIYEEGISILESSSAFPDNAARREVESLPAVCPSDGCTWKGTLKEYESCHEGRCPLMLTECPACKGLVRLGEKERHLEHECPERSLSCRHCRAPCCGADVKAHHEVCPKFPLTCDGCGKKKIPREKFQDHVKTCGKCRVPCRFHAIGCLETVEGEKQQEHEVQWLREHLAMLLSSVLEAKPLLGDQSHAGSELLQRCESLEKKTATFENIVCVLNREVERVAMTAEACSRQHRLDQDKIEALSSKVQQLERSIGLKDLAMADLEQKVLEMEASTYDGVFIWKISDFARKRQEAVAGRIPAIFSPAFYTSRYGYKMCLRIYLNGDGTGRGTHLSLFFVVMKGPNDALLRWPFNQKVTLMLLDQNNREHVIDAFRPDVTSSSFQRPVNDMNIASGCPLFCPVSKMEAKNSYVRDDAIFIKAIVDLTGL
modifications: full-length
notes: TNF receptor associated factor 2, human adaptor protein expressed from pcDNA3
B2: TRAF1: TNF receptor associated factor 1, adaptor protein overexpressed in 293T cells from pcDNA3 (protein, UniProt Q13077 1-416, looked up)
chain: MASSSGSSPRPAPDENEFPFGCPPTVCQDPKEPRALCCAGCLSENPRNGEDQICPKCRGEDLQSISPGSRLRTQEKAHPEVAEAGIGCPFAGVGCSFKGSPQSVQEHEVTSQTSHLNLLLGFMKQWKARLGCGLESGPMALEQNLSDLQLQAAVEVAGDLEVDCYRAPCSESQEELALQHFMKEKLLAELEGKLRVFENIVAVLNKEVEASHLALATSIHQSQLDRERILSLEQRVVELQQTLAQKDQALGKLEQSLRLMEEASFDGTFLWKITNVTRRCHESACGRTVSLFSPAFYTAKYGYKLCLRLYLNGDGTGKRTHLSLFIVIMRGEYDALLPWPFRNKVTFMLLDQNNREHAIDAFRPDLSSASFQRPQSETNVASGCPLFFPLSKLQSPKHAYVKDDTMFLKCIVETST
modifications: full-length
notes: TNF receptor associated factor 1, adaptor protein overexpressed in 293T cells from pcDNA3

How the values were obtained:
CD40 mutants [1] = target: T1, CD40 mutants (Homo sapiens, UniProt P25942, E235A); assay: Recruitment assay in intact cells with CD40 mutants (deletions or point mutations in TRAF binding sites); assay type: cell-based; settings: E235A plus deletion of PXQXT254 motif
T1 construct: expressed in transfected cells; host or cells: 293T
T1 sequence (P25942 21-245 E235A): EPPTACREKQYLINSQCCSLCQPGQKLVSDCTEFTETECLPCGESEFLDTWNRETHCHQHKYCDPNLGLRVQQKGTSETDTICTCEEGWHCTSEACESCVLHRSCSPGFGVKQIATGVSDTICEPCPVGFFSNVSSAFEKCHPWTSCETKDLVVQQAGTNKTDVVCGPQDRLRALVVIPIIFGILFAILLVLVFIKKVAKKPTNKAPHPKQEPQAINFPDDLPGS
Procedure: (§1) The lysates were cleared by centrifugation at 15000 G at 4° C. in a micro-centrifuge, 3 fold serially diluted (with lysis buffer containing 1% bovine serum albumin) and then every diluted sample incubated for 2 hours at room temperature (or overnight) in wells of ELISA microtiter plates coated with a mAb (Ro1) specific to the CD40 extra-cellular domain (Schwabe et al. 1997). For control purposes, instead of the wild type CD40 plasmid, a plasmid encoding a CD40 mutant lacking the entire signaling domain was used for transfection and transient expression (CD401-222, FIG. 1B). Following incubation exhaustive washes were carried out on the microtiter plates to remove any unbound protein [about 10 washing steps with PBS containing 0.05% Tween 20) PBS/Tween)]. To detect bound TRAF1, anti TRAF1 specific antibodies were loaded into the plates, incubated for about 3 hours at room temperature, […] by extensive washes to remove unbound antibody and detecting the bound antibody with an HRP conjugated secondary antibody. All antibodies (except when used as solid phase antibody) were diluted in PBS/Tween containing 1% BSA.
(§2) The recruitment of TRAF to CD40 can be quantitatively measured using the assay described in example 1. For that purpose, the assay conditions were adjusted in such a way that TRAF expression was in significant excess over the expression of CD40. This was the case when the TRAF expression plasmid was used at a two to three fold excess over the CD40 expression plasmid. The CD40 bound TRAF concentration was measured as described in example 1. A reference extract containing CD40/TRAF complexes served as a standard in each assay. This standard extract consisted of a large pool extract from cells that had been co-transfected with the plasmids encoding CD40/TRAF1, CD40/TRAF2, CD40/TRAF3, CD40/TRAF5 and CD40/TRAF6. The extracts were tested for the presence of CD40/TRAF complexes and the complex concentrations in each extract were arbitrarily defined as 1000 U/ml. The extracts were frozen in small aliquots and kept at −80° C. until further use. By comparing unknown samples to these extracts, it was possible to determine the relative CD40-TRAF complex concentrations in arbitrary units. The necessary normalization for sample-to-sample variations in the CD40 expression was calculated with the following formula: […]
(§3) The quantitative version of the TRAF recruitment assay as described in example 3 was used to compare CD40 and various CD40 mutants with respect to their TRAF recruitment behaviour. TRAF 1, 2, 3, 5 and 6 were examined. […] Additional deletion of the TRAF1/2/3/5 binding motif PXQXT254 at amino acid position 250 to 254 reduced the binding of all 5 TRAFs test to background levels (1-254EA in FIG. 3B). […]

CD40 mutants [2] = target: T2, CD40 mutants (Homo sapiens, UniProt P25942); assay: as above; assay type: cell-based; settings: CD40-222 (CD40 1-222) control, 293T cells
T2 construct: expressed in transfected cells; host or cells: 293T
T2 sequence (P25942 21-222, change not shown): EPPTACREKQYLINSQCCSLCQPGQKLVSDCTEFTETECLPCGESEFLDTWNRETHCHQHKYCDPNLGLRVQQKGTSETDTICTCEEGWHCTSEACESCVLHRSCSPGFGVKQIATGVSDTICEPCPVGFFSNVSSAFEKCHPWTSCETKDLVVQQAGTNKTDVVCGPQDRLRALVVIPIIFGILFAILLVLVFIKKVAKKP
Procedure: as §1, §2, §3

| Molecule | binding to CD40 mutant 1-254EA (CD40 mutants [1]) | recruitment to signalling-domain-deficient CD40 mutant (CD40 mutants [2]) |
| --- | --- | --- |
| B1 | did not bind |  |
| B2 |  | undetectable |

From patent publication US7642046B2, “Method for monitoring recruitment of proteins to the intracellular domain of a receptor in intact cells” (priority 2001, dated 2010)
